Measured values taken from patent US20030040042A1, “Recombinant fibroblast growth factors” (published 2003).

Tests used:
[1] = biological target: FGF receptor on Balb/c 3T3 cells
[2] = biological target: FGF receptor on Balb/c 3T3 cells; assay: competition with [125I]-bFGF on Balb/c 3T3 cells, 1 ug/ml heparin
[3] = biological target: FGF receptor on Balb/c 3T3 cells; assay: competition with [125I]-bFGF on Balb/c 3T3 cells, no heparin

bFGF-C78/96S, sequence (P09038 134-288 C211S/C229S limits assumed): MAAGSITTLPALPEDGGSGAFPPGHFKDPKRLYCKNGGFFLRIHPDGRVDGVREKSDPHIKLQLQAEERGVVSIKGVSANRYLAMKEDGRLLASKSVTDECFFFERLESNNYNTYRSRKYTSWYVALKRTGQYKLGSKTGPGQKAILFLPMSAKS
KR128, 129ST, sequence (P09038 134-288 K261S/R262T limits assumed): as the sequence (P09038 134-288 C211S/C229S limits assumed) above, with S78C, S96C, K128S, R129T counted along it

Substance | 3T3 Mito., 1 ug/ml heparin (ED50 wild type / ED50 analog x 100%) (% of wild type) [1] | 3T3 Mito., no heparin (ED50 wild type / ED50 analog x 100%) (% of wild type) [1] | FGF-Rc Comp. (ED50 analog / ED50 wild type FGF) [2] | FGF-Rc Comp. (ED50 analog / ED50 wild type FGF) [3]
K95T (from UniProt P09038-2) (ligand) | 170 | 100 | – | –
R106T (from UniProt P09038-2) (ligand) | 250 | 210 | – | –
bFGF-C96S (from UniProt P09038-2) (ligand) | – | – | 0.8 | 0.3
bFGF-D28K (from UniProt P09038-2) (ligand) | – | – | 1.3 | 1
bFGF-D46A (from UniProt P09038-2) (ligand) | – | – | – | 0.5
bFGF-D99A (from UniProt P09038-2) (ligand) | 280 | 150 | 0.03 | 0.04
bFGF-K27M (from UniProt P09038-2) (ligand) | – | – | 0.2 | 0.3
bFGF-K35S (from UniProt P09038-2) (ligand) | – | – | 0.05 | 0.1

The next lines start with the values.

3T3 Mito., 1 ug/ml heparin (ED50 wild type / ED50 analog x 100%) (% of wild type) [1] | 3T3 Mito., no heparin (ED50 wild type / ED50 analog x 100%) (% of wild type) [1] | FGF-Rc Comp. (ED50 analog / ED50 wild type FGF) [2] | FGF-Rc Comp. (ED50 analog / ED50 wild type FGF) [3] | Substance
– | 185 | 0.8 | 2 | KR128, 129ST (from UniProt P09038-2) (ligand)
160 | 118 | 0.1 | 0.2 | bFGF-C78/96S (from UniProt P09038-2) (ligand)
– | – | 0.25 | 0.3 | bFGF-C78S (from UniProt P09038-2) (ligand)
– | – | 2.5 | 2.5 | bFGF-D50A (from UniProt P09038-2) (ligand)
– | – | 1 | 0.8 | bFGF-E100A (from UniProt P09038-2) (ligand)
– | – | 0.5 | 1.1 | bFGF-E100S (from UniProt P09038-2) (ligand)
100 | 12.6 | 40 | 50 | bFGF-E105S (from UniProt P09038-2) (ligand)
– | 180 | 2.5 | 2.5 | bFGF-E108A (from UniProt P09038-2) (ligand)
– | 315 | 0.4 | 0.4 | bFGF-H59N (from UniProt P09038-2) (ligand)
8 | 1 | 1.6 | 2 | bFGF-K55I (from UniProt P09038-2) (ligand)
